US12514920B1, “Respiratory syncytial virus mRNA vaccine, and preparation method therefor and use thereof” (Hangzhou Tianlong Pharmaceutical Co., Ltd., priority 2024, dated 2026)

Tests used:
[1] = system: RSV pre-F antibody (3C12); format: physicochemical
Outline: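 RSV F mRNA-vaccine mutants stress-treated: 4° C. for one week, 50° C. for 60 min, low or high osmotic pressure at room temperature for 60 min, acid or base at room temperature for 60 min. Binding to 3C12 (epitope Φ) then measured by ELISA against pre-F trimer standard, HRP anti-human IgG, OD 450/630 nm.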

[2] = system: RSV pre-F antibody (3C12); test: ELISA binding of RSV F antigen mutants, epitope Φ; conditions: epitope Φ
Description: (§1) To investigate the binding of the RSV F antigen mutants to antibodies recognizing different epitopes, the binding amount was determined by an ELISA method in this example.
(§2) • 293T cells (purchased from ATCC cell bank); • Primary antibody: RSV pre-F antibody (3C12), epitope ([…] (Novoprotein, Cat. No.: DA101); • RSV pre-F antibody (7H11), epitope Quaternary (Novoprotein, Cat. No.: DA109); • RSV F antibody (11A9), epitope II (Novoprotein, Cat. No.: DA091); • RSV F antibody (4B9), epitope III (Novoprotein, Cat. No.: DA110); • RSV pre-F antibody (7E11), epitope V (Cat. No.: DA119); • Standard: RSV-pre-F trimer protein (Novoprotein, Cat. No.: DRA230); • Secondary antibody: peroxidase AffiniPure goat anti-human IgG (H+L) (Yeasen, Cat. No.: N/A); • Experimental group: mRNA vaccines after screening in Example 5;
(§3) Cell culture and transfection, and protein sample preparation: the experimental procedures were the same as in Example 3.
(§4) Detection of antigen expression by ELISA: the experimental procedures were the same as in Example 5.
(§5) In the present application, the binding of different mutant antigens to antibodies recognizing different epitopes was detected by ELISA, and the strength of the binding of the antigens to the antibodies was measured by the binding amount. (1) The RSV pre-F antibody (3C12) recognizing the epitope Φ binds only to the F protein in the pre-fusion conformation; (2) the RSV pre-F antibody (7H11) recognizes the epitope Quaternary (spanning both epitopes IV and V) and specifically binds to the F protein in the pre-fusion conformation; (3) the RSV F antibody (11A9) recognizing the epitope II can recognize both the pre-fusion and post-fusion conformations of the F protein; (4) the RSV F antibody […] recognizing the epitope III preferentially recognizes the pre-fusion conformation and has relatively weak binding activity for the post-fusion conformation; (5) the RSV pre-F antibody (7E11) recognizing the epitope V binds only to the F protein in the pre-fusion conformation.

[3] = system: RSV F antibody (11A9); test: ELISA binding of RSV F antigen mutants, epitope II
Description: as §1, §2, §3, §4, §5

[4] = system: RSV pre-F antibody (7E11); test: ELISA binding of RSV F antigen mutants, epitope V
Description: as §1, §2, §3, §4, §5

B1: YK-RSV-057 (protein)
chain: QNITEEFYQSTCSAVSKGYLGALRTGWYTSVITIELSNIKENKCNGTDAKVKLIKQELDKYKNAVTDLQLLMQSTPATGSGSCIASGVAVSKVLHLEGEVNKIKSALLSTNKAVVSLSNGVSVLTFKVLDLKNYIDKQLLPILNKQSCSIPNIETVIEFQQKNNRLLEITREFSVNAGVTTPVSTYMLTNSELLSLINDMPITNDQKKLMSNNVQIVRQQSYSIMSCIKEEVLAYVVQLPLYGVIDTPCWKLHTSPLCTTNTKEGSNICLTRTDRGWYCDNAGSVSFFPQAETCKVQSNRVFCDTMNSRTLPSEVNLCNVDIFNPKYDCKIMTSKTDVSSSVITSLGAIVSCYGKTKCTASNKNRGIIKTFSNGCDYVSNKGVDTVSVGNTLYYVNKQEGQSLYVKGEPIINFYDPLVFPSDEFDASISQVNEKINQSLAFIRKSDELLHNVNAGKSTTNIMITTIIIVIIVILLSLIAVGLLLY
- stability under the stress tests (in words) ([1]; all stress tests, binding to 3C12, ELISA): superior stability
- Stress resistance parameter, Osmotic pressure (mM) 3000 ([1]; high osmotic pressure 3000 mM, room temperature, 60 min, ELISA binding to 3C12): 0.64 ± 0.15
- Stress resistance parameter, Temperature (° C.) 50 ([1]; incubation at 50° C. for 60 min, ELISA binding to 3C12): 0.64 ± 0.17
- Stress resistance parameter, Osmotic pressure (mM) 10 ([1]; low osmotic pressure 10 mM, room temperature, 60 min, ELISA binding to 3C12): 0.70 ± 0.07
- Stress resistance parameter, pH 3.5 ([1]; pH 3.5, room temperature, 60 min, ELISA binding to 3C12): 0.56 ± 0.08
- Stress resistance parameter, pH 10 ([1]; pH 10, room temperature, 60 min, ELISA binding to 3C12): 0.56 ± 0.09
- Stress resistance parameter, Temperature (° C.) 4 ([1]; storage at 4° C. for one week, ELISA binding to 3C12): 0.61 ± 0.10
- ELISA binding amount, Epitope Φ, RSV pre-F antibody (3C12) [2]: 5210 ng/mL
- Binding amount to antibody/binding amount of PC-RSV-064 to antibody, Epitope Φ ([2]; antibody 3C12, relative to PC-RSV-064): 1.88
- ELISA binding amount, Epitope II, RSV F antibody (11A9) [3]: 2823 ng/mL
- Binding amount to antibody/binding amount of PC-RSV-064 to antibody, Epitope II ([3]; antibody 11A9, relative to PC-RSV-064): 1.34
- ELISA binding amount, Epitope V, RSV F antibody (7E11) [4]: 129 ng/mL
- Binding amount to antibody/binding amount of PC-RSV-064 to antibody, Epitope V ([4]; antibody 7E11, relative to PC-RSV-064): 0.40
